# In US20250152742A1, “COMPOSITIONS AND METHODS FOR NEUROLOGICAL DISEASES” (Trames Bio, Inc., priority 2022, published 2025):
# B1: CODA71: parental chimeric LGIC: human α7-nAChR ligand binding domain with GlyRα1 Cys-loop fused to human GlyRα1 ion pore domain (protein)
# chain: MRCSPGGVWLALAASLLHVSLQGEFQRKLYKELVKNYNPLERPVANDSQPLTVYFSLSLLQIMDVDEKNQVLTTNIWLQMSWTDHYLQWNVSEYPGVKTVRFPDGQIWKPDILLYNSADERFDATFHTNVLVNSSGHCQYLPPGIFKSSCPMDLKNFPMDVQTCKLKFGSWSYGGWSLDLQMQEADISGYIPNGEWDLVGIPGKRSERFYECCKEPYPDVTFTVTMRRRMGYYLIQMYIPSLLIVILSWISFWINMDAAPARVGLGITTVLTMTTQSSGSRASLPKVSYVKAIDIWMAVCLLFVFSALLEYAAVNFVSRQHKELLRFRRKRRHHKSPMLNLFQEDEAGEGRFNFSAYGMGPACLQAKDGISVKGANNSNTTNPPPAPSKSPEEMRKLFIQRAKKIDKISRIGFPMAFLIFNMFYWIIYKIVRREDVHNQ
# modifications: synthetic sequence of chimeric LGIC
# Test system: engineered chimeric receptor SEQ ID NO: 33 and its mutants (human α7-nAChR ligand binding domain / human GlyRα1 ion pore domain) in Lenti-X 293T cells
# Assay: YFP fluorescence quenching anion reporter plate reader assay (percent quench, EC50)
# Format: cell-based
# Details: for YFP fluorescence quenching using CNL001 (percent quench): receptor named in row; for YFP fluorescence quenching using Varenicline, 3 nM var: ligand Varenicline 3 nM; for YFP fluorescence quenching using Varenicline, 30 nM var: ligand Varenicline 30 nM; for YFP fluorescence quenching using Varenicline, 300 nM var: ligand Varenicline 300 nM; for YFP fluorescence quenching using Varenicline, 500 nM var: ligand Varenicline 500 nM; for YFP fluorescence quenching using Varenicline, 1 uM var: ligand Varenicline 1 uM
# How it was run: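 Percent quench compares mean YFP signal over the final 10 s with the 15 s baseline before ligand, added in iodide-containing extracellular solution (pH 7.2). Cells were LX293T carrying a YFP anion reporter, transiently transfected with the channel construct; plates were preincubated 30 min at 37 °C.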
molecule,measurement,setting,value
B1,YFP fluorescence quenching using CNL001 (percent quench),"1 nM CNL001, first column so headed",3.727%
same,YFP fluorescence quenching using CNL001 (percent quench),"1 nM CNL001, second column so headed",20.231%
same,YFP fluorescence quenching using TC-5619/Bradanicline (percent quench),1 nM brd (TC-5619/Bradanicline),9.41%
same,YFP fluorescence quenching using TC-5619/Bradanicline (percent quench),3 nM brd (TC-5619/Bradanicline),44.38%
same,YFP fluorescence quenching using CNL001 (percent quench),"10 nM CNL001, first column so headed",81.096%
same,YFP fluorescence quenching using CNL001 (percent quench),"10 nM CNL001, second column so headed",82.368%
same,YFP fluorescence quenching using TC-5619/Bradanicline (percent quench),10 nM brd (TC-5619/Bradanicline),76.61%
same,YFP fluorescence quenching using TC-6683 (percent quench),30 nM TC-6683,−14.43%
same,YFP fluorescence quenching using TC-5619/Bradanicline (percent quench),30 nM brd (TC-5619/Bradanicline),70.23%
same,YFP fluorescence quenching using CNL001 (percent quench),"50 nM CNL001, first column so headed",83.62%
same,YFP fluorescence quenching using CNL001 (percent quench),"50 nM CNL001, second column so headed",84.482%
same,YFP fluorescence quenching using ABT-126 (percent quench),50 nM abt (ABT-126),−1.98%
same,YFP fluorescence quenching using CNL001 (percent quench),"100 nM CNL001, first column so headed",84.297%
same,YFP fluorescence quenching using CNL001 (percent quench),"100 nM CNL001, second column so headed",85.368%
same,YFP fluorescence quenching (percent quench),100 nM CNL002,49.61%
same,YFP fluorescence quenching using ABT-126 (percent quench),100 nM abt (ABT-126),24.27%
same,YFP fluorescence quenching using AZD-0328 (percent quench),100 nM azd0328,73.59%
same,YFP fluorescence quenching using TC-5619/Bradanicline (percent quench),100 nM brd (TC-5619/Bradanicline),78.62%
same,YFP fluorescence quenching using TC-6683 (percent quench),300 nM TC-6683,−13.08%
same,YFP fluorescence quenching using ABT-126 (percent quench),300 nM abt (ABT-126),56.8%
same,YFP fluorescence quenching using AZD-0328 (percent quench),300 nM azd0328,78.09%
same,YFP fluorescence quenching using TC-5619/Bradanicline (percent quench),300 nM brd (TC-5619/Bradanicline),75.51%
same,YFP fluorescence quenching using ABT-126 (percent quench),500 nM abt (ABT-126),76.28%
same,YFP fluorescence quenching using CNL001 (percent quench),"1 uM CNL001, first column so headed",85.647%
same,YFP fluorescence quenching using CNL001 (percent quench),"1 uM CNL001, second column so headed",86.358%
same,YFP fluorescence quenching (percent quench),1 uM CNL002,74.15%
same,YFP fluorescence quenching using ABT-126 (percent quench),1 uM abt (ABT-126),73.16%
same,YFP fluorescence quenching using TC-6683 (percent quench),3 uM TC-6683,−13.71%
same,YFP fluorescence quenching using ABT-126 (percent quench),3 uM abt (ABT-126),70.98%
same,YFP fluorescence quenching using ABT-126 (percent quench),10 uM abt (ABT-126),72.62%
same,YFP fluorescence quenching (percent quench),10 uM ach (acetylcholine),15.61%
same,YFP fluorescence quenching (percent quench),30 uM CNL002,75.21%
same,YFP fluorescence quenching using TC-6683 (percent quench),30 uM TC-6683,−14.02%
same,YFP fluorescence quenching using ABT-126 (percent quench),30 uM abt (ABT-126),77.49%
same,YFP fluorescence quenching (percent quench),30 uM ach (acetylcholine),63.31%
same,YFP fluorescence quenching using AZD-0328 (percent quench),30 uM azd0328,79.05%
same,YFP fluorescence quenching using ABT-126 (percent quench),50 uM abt (ABT-126),77.96%
same,YFP fluorescence quenching (percent quench),50 uM ach (acetylcholine),73.16%
same,YFP fluorescence quenching using TC-6683 (percent quench),100 uM TC-6683,−8.77%
same,YFP fluorescence quenching using ABT-126 (percent quench),100 uM abt (ABT-126),77.81%
same,YFP fluorescence quenching (percent quench),100 uM ach (acetylcholine),74.94%
same,YFP fluorescence quenching (percent quench),300 uM ach (acetylcholine),65.94%
same,YFP fluorescence quenching (percent quench),500 uM ach (acetylcholine),62.78%
same,YFP fluorescence quenching (percent quench),1 mM ach (acetylcholine),74.24%
same,YFP fluorescence quenching (percent quench),3 mM ach (acetylcholine),76.27%
same,YFP fluorescence quenching (percent quench),5 mM ach (acetylcholine),77.15%
same,YFP fluorescence quenching (percent quench),10 mM ach (acetylcholine),77.96%
same,"YFP fluorescence quenching using Facinicline, 30 nM fac",ligand Facinicline 30 nM,53.42
same,"YFP fluorescence quenching using Facinicline, 100 nM fac",ligand Facinicline 100 nM,83.6
same,"YFP fluorescence quenching using Facinicline, 300 nM fac",ligand Facinicline 300 nM,77.44
same,"YFP fluorescence quenching using Facinicline, 30 uM fac",ligand Facinicline 30 uM,79.62
same,"YFP fluorescence quenching using TC-6987, 1 uM tc6987",ligand TC-6987 1 uM,31.56
same,"YFP fluorescence quenching using TC-6987, 3 uM tc6987",ligand TC-6987 3 uM,31.82
same,"YFP fluorescence quenching using TC-6987, 5 uM tc6987",ligand TC-6987 5 uM,30.75
same,"YFP fluorescence quenching using TC-6987, 10 uM tc6987",ligand TC-6987 10 uM,56.68
same,"YFP fluorescence quenching using TC-6987, 30 uM tc6987",ligand TC-6987 30 uM,51.46
same,"YFP fluorescence quenching using TC-6987, 50 uM tc6987",ligand TC-6987 50 uM,61.26
same,"YFP fluorescence quenching using TC-6987, 100 uM tc6987",ligand TC-6987 100 uM,43.21
same,"YFP fluorescence quenching using TC-6987, 300 uM tc6987",ligand TC-6987 300 uM,7.79
same,"YFP fluorescence quenching using TC-6987, 500 uM tc6987",ligand TC-6987 500 uM,51.58
same,"YFP fluorescence quenching using Varenicline, 3 nM var",first column,−2.36
same,"YFP fluorescence quenching using Varenicline, 3 nM var",second column,−3.522
same,"YFP fluorescence quenching using Varenicline, 30 nM var",first column,−4.255
same,"YFP fluorescence quenching using Varenicline, 30 nM var",second column,−3.636
same,"YFP fluorescence quenching using Varenicline, 300 nM var",first column,46.195
same,"YFP fluorescence quenching using Varenicline, 300 nM var",second column,45.522
same,"YFP fluorescence quenching using Varenicline, 500 nM var",first column,69.253
same,"YFP fluorescence quenching using Varenicline, 500 nM var",second column,71.705
same,"YFP fluorescence quenching using Varenicline, 1 uM var",first column,79.254
same,"YFP fluorescence quenching using Varenicline, 1 uM var",second column,79.244
